Test results as given in US20030108992A1 (US Dept. of Health and Human Services, published 2003).

Target: T1, p80 TNFR (endogenous) (UniProt P20333 23-461, limits assumed)
T1 construct: whole, on cells; also called TNFR2; p75
T1 sequence (looked up): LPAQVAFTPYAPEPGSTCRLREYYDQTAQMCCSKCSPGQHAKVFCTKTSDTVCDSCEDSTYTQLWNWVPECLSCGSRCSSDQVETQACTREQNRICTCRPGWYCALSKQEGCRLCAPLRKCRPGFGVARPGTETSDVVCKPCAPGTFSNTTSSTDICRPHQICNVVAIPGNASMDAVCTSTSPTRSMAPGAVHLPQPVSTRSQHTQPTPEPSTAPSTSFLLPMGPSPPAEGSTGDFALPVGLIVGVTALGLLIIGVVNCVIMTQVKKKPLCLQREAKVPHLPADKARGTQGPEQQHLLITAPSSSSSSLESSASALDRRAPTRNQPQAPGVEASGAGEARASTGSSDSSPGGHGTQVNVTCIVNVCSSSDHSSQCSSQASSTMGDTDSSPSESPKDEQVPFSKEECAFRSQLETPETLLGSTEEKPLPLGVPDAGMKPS
Assay: DTSSP crosslinking of H9 cells, anti-p60 immunoprecipitation, Western blot
Protocol: H9 lymphoma cells were washed and resuspended in PBS. […] Cells were then treated with 2 mM of the crosslinker DTSSP (Pierce) for 30 minutes and the reaction was quenched with 20 mM Tris.Cl [pH 7.5] for 15 minutes on ice. The cells were lysed in 150 mM NaCl, 20 mM Tris.Cl [pH 7.5], 1 mM EDTA, 30 mM NaF, 2 mM b-glycerophosphate and 1 mM sodium orthovanadate with protease inhibitors added (Boehringer Mannheim). […] Densitometry was performed with a Kodak Image Station 440.

- binding result: no binding
B1: p60 TNFR (endogenous) (receptor, UniProt P19438 30-455, looked up)
chain: LVPHLGDREKRDSVCPQGKYIHPQNNSICCTKCHKGTYLYNDCPGPGQDTDCRECESGSFTASENHLRHCLSCSKCRKEMGQVEISSCTVDRDTVCGCRKNQYRHYWSENLFQCFNCSLCLNGTVHLSCQEKQNTVCTCHAGFFLRENECVSCSNCKKSLECTKLCLPQIENVKGTEDSGTTVLLPLVIFFGLCLLSLLFIGLMYRYQRWKSKLYSIVCGKSTPEKEGELEGTTTKPLAPNPSFSPTPGFTPTLGFSPVPSSTFTSSSTYTPGDCPNFAAPRREVAPPYQGADPILATALASDPIPNPLQKWEDSAHKPQSLDTDDPATLYAVVENVPPLRWKEFVRRLGLSDHEIDRLELQNGRCLREAQYSMLATWRRRTPRREATLELLGRVLRDMDLLGCLEDIEEALCGPAALPPAPSLLR
notes: whole, on cells; also called endogenous p60 receptor; TNFR1
